According to patent US20230109780A1 (XIYUAN ANJIAN MEDICINE SHANGHAI, published 2023):
Substitutions are numbered along the chain they refer to.

B1: murine anti-human NGF monoclonal antibody 137H8 (antibody, V domains shown)
VH: QVQLKESGPGLVAPSQSLSITCTVSGFSLTGYAVNWVRQPPGKGLEWLGMIWFDGSTDYNSALKSRLSISKDNSKSQVFLKMNSLQTDDTARYYCARDYYGSSWYFDVWGAGTTVTVSS
VL: DIQMTQTTSSLSASLGDRVTISCRASQDISYYLNWYQQKPDGTVKLLIYYTSRLHSGVPSRFSGSGSGTDYSLTISNLEQEDIATYFCQQGNTLPRTFGGGTKLDIK
notes: Murine monoclonal antibody purified from hybridoma medium by protein G; also called anti-NGF antibody 137H8
B2: murine anti-human NGF monoclonal antibody 138E12 (antibody, V domains shown)
VH: QVQLKESGPGLVAPSQSLSITCTVSGFSLTGYGVNWVRQPPGKGLEWLGMIWFDGSTDYNSALKSRLSISKDNSKSQVFLKMNSLQTDDTARYYCAREGYYYGTTYYFDYWGQGTTLTVSS
VL: B1 VL with Y31N, D105E
notes: Murine monoclonal antibody purified from hybridoma medium by protein G; also called anti-NGF antibody 138E12
B3: murine anti-human NGF monoclonal antibody 43E5 (antibody, V domains shown)
VH: QVQLQQSGAELVRPGASVTLSCKASGYTFTDYEMHWVRQTPVHGLEWIGAIDPETGGTAYNQKFKGKATLTADKSSSTAYMELRSLTSEDSAVYYCRRGANLNHYGNDEGSYWGQGTLVTVSA
VL: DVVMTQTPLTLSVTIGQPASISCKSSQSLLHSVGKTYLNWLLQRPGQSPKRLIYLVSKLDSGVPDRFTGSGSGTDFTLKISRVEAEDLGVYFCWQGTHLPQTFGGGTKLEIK
notes: Murine monoclonal antibody purified from hybridoma medium by protein G; also called anti-NGF antibody 43E5

Columns and labels:
[1] = target: T1, recombinant human NGF protein (human, UniProt P01138 122-241); experiment: ELISA, human NGF coated
T1 construct: Bought protein; also called nerve growth factor; biotin-labeled human NGF
Experimental: (§1) The binding capacity of anti-NGF antibodies was investigated by using human NGF as an antigen (Beijing Yiqiao Shenzhou Technology Co., Ltd., 11050-HNAC). Each well of a 96-well microtiter plate was coated with 50 ng of human NGF, after washing and blocking, and then added with serially diluted antibodies, and incubated at room temperature for 1 hour. After washing three times, HRP-conjugated goat anti-mouse antibody (Biolegend, 405306) was added and incubated at room temperature for 1 hour. After washing three times, tetramethylbenzidine (TMB, Biolegend, 421101) was added for color development. 1M HC1 was used to terminate the color development, and the absorbance values were read at 450 nm with a microplate reader.

[2] = target: T1, recombinant human NGF protein; experiment: cell-based or functional assay
[3] = target: T1, recombinant human NGF protein; experiment: cell-based or functional assay; remark: listed apart in the source
[4] = target: T1, recombinant human NGF protein; experiment: blocking ELISA, TrkA-Fc coated, antibody premixed with biotin-labeled human NGF
Experimental: If the method of coated receptor TrkA is used for detection, 50 ng of NGF receptor TrkA protein (fused to human Fc) was coated in each well of a 96-well microtiter plate, washed three times, and then blocked with 3% BSA for 1 hour. […] 100 μl was taken and mixed with an equal volume of 1 μg/mL biotin-labeled human NGF, incubated at room temperature for 0.5 hours, and then added to an ELISA plate which has been washed with blocking solution. Incubated for 1 hour at room temperature and washed three times. Streptavidin-labeled HRP (Biolegend, 405210) was added, and incubated for 0.5 h and then washed three times. The microtiter plate was added with TMB, and read after the color development was terminated.

[5] = target: T1, recombinant human NGF protein; experiment: BLI (ForteBio Octet Red96), biotin-NGF on SA sensor, antibody in solution
Excerpt: The affinities of the antibodies were detected with Biomolecular Interaction Detection Platform (ForteBio Octet Red96 (PALL)). Biotin-labeled human NGF was immobilized by using SA (Streptavidin) Biosensor (Fortebio, 18-5021), and then conjugated with gradient concentrations of anti-NGF antibodies.

[6] = target: T1, recombinant human NGF protein; experiment: cell-based or functional assay; remark: listed apart in the source
[7] = target: T1, recombinant human NGF protein; experiment: blocking ELISA, human NGF coated, antibody first, then TrkA-Fc
Experimental: If using the coated ligand NGF method for detection, each well of a 96-well microtiter plate was coated with 50 ng of human NGF and washed three times. […] 100 μL of 1 μg/mL TrkA fused to human Fc was added to each well, incubated for 1 hour at room temperature, and washed three times. HRP-conjugated donkey anti-human IgG antibody (Biolegend, 410902) was added and reacted for 1-hour at room temperature. After washing, add TMB to develop color, and read after the termination of development.

human NT-4 = target: T2, human NT-4 (human, UniProt P34130 81-210); experiment: ELISA, plate coated with human NT-4 (50 ng per well), OD450
T2 construct: Bought protein; also called Neurotrophic factor-4
T2 sequence (looked up): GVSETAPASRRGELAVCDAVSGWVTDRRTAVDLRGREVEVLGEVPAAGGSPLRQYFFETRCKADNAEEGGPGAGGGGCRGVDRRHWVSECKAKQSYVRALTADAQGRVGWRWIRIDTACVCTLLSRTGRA
Experimental: as §1
(§2) Each well of a 96-well microtiter plate was coated with 50 ng of human NGF (Beijing Yiqiao Shenzhou Technology Co., Ltd., 11050-HNAC), human BDNF (Beijing Yiqiao Shenzhou Technology Co., Ltd., 50240-MNAS), human NT-3 (Beijing Yiqiao Shenzhou Technology Co., Ltd., 10286-HNAE), or human NT-4 (Alomone, N-270). The bindings of the murine anti-NGF antibodies to human NGF and three homo-family proteins were detected according to the method described in Example 2.

human BDNF = target: T3, human BDNF (human, UniProt P23560 129-247); experiment: ELISA, plate coated with human BDNF (50 ng per well), OD450
T3 construct: Bought protein; also called Brain-Derived Neurotrophic Factor
T3 sequence (looked up): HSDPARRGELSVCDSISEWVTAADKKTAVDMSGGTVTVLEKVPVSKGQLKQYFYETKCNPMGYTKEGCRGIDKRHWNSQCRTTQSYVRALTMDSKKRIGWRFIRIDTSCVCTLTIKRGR
Experimental: as §1, §2

human NT-3 = target: T4, human NT-3 (human, UniProt P20783 139-257); experiment: ELISA, plate coated with human NT-3 (50 ng per well), OD450
T4 construct: Bought protein; also called Neurotrophic factor-3
T4 sequence (looked up): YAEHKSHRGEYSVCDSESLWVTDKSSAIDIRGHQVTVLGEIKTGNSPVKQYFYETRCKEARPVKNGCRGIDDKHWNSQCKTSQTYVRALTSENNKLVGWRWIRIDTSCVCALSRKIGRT
Experimental: as §1, §2

T1 sequence (P01138 122-241 limits assumed): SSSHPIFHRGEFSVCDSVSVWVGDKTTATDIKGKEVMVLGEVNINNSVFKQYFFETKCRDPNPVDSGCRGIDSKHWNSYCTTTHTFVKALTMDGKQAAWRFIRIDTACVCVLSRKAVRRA

| Binder | EC50 [1] | IC50, inhibition of NGF-induced proliferation of TF-1 cell [2] | IC50, inhibition of NGF-induced proliferation of TrkA/Ba/F3 cells [3] | IC50 [4] | Kd [5] | koff [5] | kon [5] | IC50 (row head prints EC50), inhibition of reporter gene expression in TrkA/NFAT-bla/CHO cells [6] | IC50 [7] | binding result (human NT-4) | binding result (human BDNF) | binding result (human NT-3) |
| --- | --- | --- | --- | --- | --- | --- | --- | --- | --- | --- | --- | --- |
| B1 | 0.112 nM | 0.123 nM | 0.083 nM | 0.738 nM | 0.381 nM | 4.91e-05 s⁻¹ | 129000 M⁻¹ s⁻¹ | 0.0859 nM | 0.791 nM | – | – | – |
| B2 | 0.1 nM | 0.077 nM | 0.098 nM | 0.677 nM | < 0.001 nM | < 1e-07 s⁻¹ | 634000 M⁻¹ s⁻¹ | 0.0442 nM | 0.865 nM | no binding (tested: 66.67 nM) | no binding (tested: 66.67 nM) | no binding (tested: 66.67 nM) |
| B3 | 0.082 nM | 0.083 nM | 0.096 nM | 0.767 nM | < 0.001 nM | < 1e-07 s⁻¹ | 373000 M⁻¹ s⁻¹ | 0.0532 nM | 0.967 nM | no binding (tested: 66.67 nM) | no binding (tested: 66.67 nM) | no binding (tested: 66.67 nM) |
